Reference: paper PMC9130538, “Amino acids in transmembrane helix 1 confer major functional differences between human and mouse orthologs of the polyspecific membrane transporter OCT1” (The Journal of Biological Chemistry, 2022)

How the values were obtained:
Assay in all cases: cells, lysate or membranes
[1] = substrate: CC(C)(C)NCC(O)c1ccc(O)c(CO)c1; conditions: other: HEK293 stably transfected, 2 min uptake, 37 °C, pH 7.4
[2] = substrate: CNC[C@H](O)c1ccc(O)c(O)c1; conditions: other: HEK293 stably transfected, 2 min uptake, 37 °C, pH 7.4
[3] = substrate: CC(C)(C)NCC(O)c1ccc(O)c(CO)n1; conditions: other: HEK293 stably transfected, 2 min uptake, 37 °C, pH 7.4
[4] = substrate: CC(Cc1ccc(O)cc1)NCC(O)c1cc(O)cc(O)c1; conditions: other: HEK293 stably transfected, 2 min uptake, 37 °C, pH 7.4
[5] = substrate: [H]/N=C(/N)N/C(=N/[H])NCCc1ccccc1; conditions: other: HEK293 stably transfected, 2 min uptake, 37 °C, pH 7.4
Description: (§1) Cells were cultured in Dulbecco’s Modified Eagle’s Medium supplemented with 10% fetal bovine serum, 100 U/ml penicillin, and 100 μg/ml streptomycin at 37 °C and 5% CO2 and were passaged twice a week.
(§2) At 48 h prior to the experiment, 6 × 10^5 cells were seeded per well in 12-well plates. When using transiently transfected cells, 5 × 10^5 T-REx-293 cells (Life Technologies) were seeded per well in 12-well plates 72 h prior to the experiment, and they were transfected 24 h later as described previously. Twelve-well plates were precoated with poly-D-lysine.
(§3) Cellular uptake experiments were performed at 37 °C and pH 7.4 using HBSS supplemented with 10 mM Hepes (in the following referred to as HBSS+). Cells were washed with 1 ml prewarmed (37 °C) HBSS+, and the uptake was initiated by adding 400 μl of prewarmed HBSS+ containing the substrate. Uptake was allowed for exactly 2 min and afterward stopped by adding 2 ml ice-cold HBSS+. Cells were washed twice with 2 ml ice-cold HBSS+ and lysed with 80% acetonitrile supplemented with internal standard, 0.1 N NaOH/0.1% SDS, or radioimmunoprecipitation buffer for LC–MS/MS, liquid scintillation counting, or fluorescence spectroscopy detection, respectively. Intracellular substrate concentrations were measured as described in the following and were then normalized to the amount of total protein in the samples as measured using the bicinchoninic acid assay ([51]).
(§4) For LC–MS/MS quantification of intracellular substrate concentrations, the cell lysate was centrifuged at 16,000g for 15 min, and 350 μl of supernatant was evaporated to dryness under nitrogen flow at 40 °C. The sample was reconstituted with 200 μl 0.1% formic acid, and between 2 and 30 μl were injected into the LC–MS/MS system (Table S1).
(§5) An API4000 QTRAP tandem mass spectrometer with ESI interface (AB SCIEX) was used, coupled to a Shimadzu Nexera X2 UHPLC system with LC 30AD pumps and SiL 30AC autosampler (Shimadzu).
(§6) Intracellular concentrations of radioactively labeled substrates MPP^+ and TEA^+ were quantified using liquid scintillation counting. To this end, 400 μl cell lysate was transferred into a 20 ml scintillation vial, 9 ml Aquasafe 500 Plus liquid scintillator (both Zinsser Analytics) was added, and the sample was measured in the Scintillation Counter LS6500 (Beckman Coulter).

[6] = substrate: CC(C)(C)NCC(O)c1cc(O)cc(O)c1; conditions: other: HEK293 stably transfected, 2 min uptake, 37 °C, pH 7.4
[7] = substrate: CNS(=O)(=O)Cc1ccc2[nH]cc(CCN(C)C)c2c1; conditions: other: HEK293 stably transfected, 2 min uptake, 37 °C, pH 7.4
[8] = substrate: CC(C)NCC(O)c1cc(O)cc(O)c1; conditions: other: HEK293 stably transfected, 2 min uptake, 37 °C, pH 7.4
[9] = substrate: CNC(=C[N+](=O)[O-])NCCSCc1ccc(CN(C)C)o1; conditions: other: HEK293 stably transfected, 2 min uptake, 37 °C, pH 7.4
[10] = substrate: CC(NCCc1ccc(O)cc1)C(O)c1ccc(O)cc1; conditions: other: HEK293 stably transfected, 2 min uptake, 37 °C, pH 7.4
[11] = substrate: NCCc1c[nH]cn1; conditions: other: HEK293 stably transfected, 2 min uptake, 37 °C, pH 7.4
[12] = substrate: O=C(O[C@H]1C[C@H]2CC[C@@H](C1)[N+]21CCCC1)C(O)(c1ccccc1)c1ccccc1; conditions: pH 7.4; 37.0 °C
Description: as §1, §2, §3, §4, §5, §6

[13] = substrate: COc1ccc(CC(C)NCC(O)c2ccc(O)c(NC=O)c2)cc1; conditions: other: HEK293 stably transfected, 2 min uptake, 37 °C, pH 7.4
[14] = substrate: NCCc1c[nH]c2ccc(O)cc12; conditions: other: HEK293 stably transfected, 2 min uptake, 37 °C, pH 7.4
[15] = substrate: NCCc1ccc(O)c(O)c1; conditions: other: HEK293 stably transfected, 2 min uptake, 37 °C, pH 7.4
[16] = substrate: CC(CCc1ccc(O)cc1)NCC(O)c1ccc(O)cc1; conditions: other: HEK293 stably transfected, 2 min uptake, 37 °C, pH 7.4
Description: as §1, §2, §3, §4, §5, §6

[17] = substrate: C[N+]1(CC2CC2)CC[C@]23c4c5ccc(O)c4O[C@H]2C(=O)CC[C@@]3(O)[C@H]1C5; conditions: other: HEK293 stably transfected, 2 min uptake, 37 °C, pH 7.4
Description: as §1, §2, §3, §4, §5, §6

[18] = substrate: C[N+](C)(C)CCO; conditions: other: HEK293 stably transfected, 2 min uptake, 37 °C, pH 7.4
[19] = substrate: NC[C@H](O)c1ccc(O)c(O)c1; conditions: other: HEK293 stably transfected, 2 min uptake, 37 °C, pH 7.4

B1: human OCT1 (Homo sapiens) (protein)
chain: MPTVDDILEQVGESGWFQKQAFLILCLLSAAFAPICVGIVFLGFTPDHHCQSPGVAELSQRCGWSPAEELNYTVPGLGPAGEAFLGQCRRYEVDWNQSALSCVDPLASLATNRSHLPLGPCQDGWVYDTPGSSIVTEFNLVCADSWKLDLFQSCLNAGFLFGSLGVGYFADRFGRKLCLLGTVLVNAVSGVLMAFSPNYMSMLLFRLLQGLVSKGNWMAGYTLITEFVGSGSRRTVAIMYQMAFTVGLVALTGLAYALPHWRWLQLAVSLPTFLFLLYYWCVPESPRWLLSQKRNTEAIKIMDHIAQKNGKLPPADLKMLSLEEDVTEKLSPSFADLFRTPRLRKRTFILMYLWFTDSVLYQGLILHMGATSGNLYLDFLYSALVEIPGAFIALITIDRVGRIYPMAMSNLLAGAACLVMIFISPDLHWLNIIIMCVGRMGITIAIQMICLVNAELYPTFVRNLGVMVCSSLCDIGGIITPFIVFRLREVWQALPLILFAVLGLLAAGVTLLLPETKGVALPETMKDAENLGRKAKPKENTIYLKVQTSEPSGT
With B1 the Km [1] was 395 ± 56.8 µM, the Vmax [1] was 0.00138 µmol/min/mg and the Vmax/Km [1] was 3.55 µL/min/mg. It also gave a Km [2] of 558 ± 411 µM, a Vmax [2] of 0.00112 µmol/min/mg and a Vmax/Km [2] of 2.69 µL/min/mg. For the same protein, the Km [3] was 29.2 ± 12.2 µM, the Vmax [3] was 0.00202 µmol/min/mg and the Vmax/Km [3] was 73.5 µL/min/mg. For the same protein, the Km [4] was 0.87 ± 0.19 µM, the Km [5] was 18.7 ± 2.64 µM and the Km [6] was 197 ± 54.1 µM. It also gave a Vmax [6] of 0.0008 µmol/min/mg, a Vmax/Km [6] of 3.81 µL/min/mg and a Km [7] of 65.9 ± 15.1 µM. For the same protein, the Vmax [7] was 0.00418 µmol/min/mg, the Vmax/Km [7] was 63.6 µL/min/mg and the Km [8] was 530 ± 44.9 µM. The Vmax [8] was 0.0016 µmol/min/mg, the Vmax/Km [8] was 3.03 µL/min/mg and the Km [9] was 55.7 ± 4.63 µM. It also gave a Vmax [9] of 0.00409 µmol/min/mg, a Vmax/Km [9] of 75 µL/min/mg and a Km [10] of 0.68 ± 0.12 µM. For the same protein, the Vmax [10] was 0.000153 µmol/min/mg, the Vmax/Km [10] was 226 µL/min/mg and the Km [11] was 4675 ± 2319 µM. For the same protein, the Vmax [11] was 0.00512 µmol/min/mg, the Vmax/Km [11] was 1.27 µL/min/mg and the Km [12] was 17.0 ± 5.46 µM. For the same protein, the Vmax [12] was 0.00141 µmol/min/mg, the Vmax/Km [12] was 86.7 µL/min/mg and the Km [13] was 13.2 ± 3.71 µM. It also gave a Km [14] of 663 ± 334 µM, a Vmax [14] of 0.00618 µmol/min/mg and a Vmax/Km [14] of 10 µL/min/mg. For the same protein, the Km [15] was 674 ± 194 µM, the Vmax [15] was 0.000718 µmol/min/mg and the Vmax/Km [15] was 1.04 µL/min/mg. For the same protein, the Km [16] was 2.17 ± 0.59 µM, the Vmax [16] was 0.000336 µmol/min/mg and the Vmax/Km [16] was 162 µL/min/mg.

B2: mouse Oct1 (Mus musculus) (protein)
chain: MPTVDDVLEHVGEFGWFQKQAFLLLCLISASLAPIYVGIVFLGFTPDHHCRSPGVAELSQRCGWSPAEELNYTVPGLGSAGEASFLSQCMKYEVDWNQSTLDCVDPLSSLAANRSHLPLSPCEHGWVYDTPGSSIVTEFNLVCGDAWKVDLFQSCVNLGFFLGSLVVGYIADRFGRKLCLLVTTLVTSLSGVLTAVAPDYTSMLLFRLLQGMVSKGSWVSGYTLITEFVGSGYRRTTAILYQVAFTVGLVGLAGVAYAIPDWRWLQLAVSLPTFLFLLYYWFVPESPRWLLSQKRTTQAVRIMEQIAQKNRKVPPADLKMMCLEEDASERRSPSFADLFRTPSLRKHTLILMYLWFSCAVLYQGLIMHVGATGANLYLDFFYSSLVEFPAAFIILVTIDRIGRIYPIAASNLVAGAACLLMIFIPHELHWLNVTLACLGRMGATIVLQMVCLVNAELYPTFIRNLGMMVCSALCDLGGIFTPFMVFRLMEVWQALPLILFGVLGLSAGAVTLLLPETKGVALPETIEEAENLGRRKSKAKENTIYLQVQTGKSPHT
In the case of B2, the Km [1] is reported as 52.2 ± 7.27 µM, the Vmax [1] is reported as 0.00197 µmol/min/mg and the Vmax/Km [1] is reported as 38.2 µL/min/mg. For the same protein, the Km [2] was 242 ± 38.6 µM, the Vmax [2] was 0.00755 µmol/min/mg and the Vmax/Km [2] was 31.2 µL/min/mg. It also gave a Km [3] of 26.5 ± 12.5 µM, a Vmax [3] of 0.00185 µmol/min/mg and a Vmax/Km [3] of 76.3 µL/min/mg. The Km [4] was 6.90 ± 0.56 µM, the Km [5] was 7.53 ± 0.63 µM and the Km [6] was 60.4 ± 18.7 µM. For the same protein, the Vmax [6] was 0.00295 µmol/min/mg, the Vmax/Km [6] was 48.7 µL/min/mg and the Km [7] was 65.7 ± 17.0 µM. The Vmax [7] was 0.00325 µmol/min/mg, the Vmax/Km [7] was 50.5 µL/min/mg and the Km [17] was 8.61 ± 3.12 µM. The Km [8] was 89.8 ± 9.34 µM, the Vmax [8] was 0.00424 µmol/min/mg and the Vmax/Km [8] was 47.6 µL/min/mg. It also gave a Km [9] of 84.4 ± 27.0 µM, a Vmax [9] of 0.0058 µmol/min/mg and a Vmax/Km [9] of 74.1 µL/min/mg. The Km [10] was 6.34 ± 0.89 µM, the Vmax [10] was 0.000737 µmol/min/mg and the Vmax/Km [10] was 116 µL/min/mg. The Km [18] was 1286 ± 308 µM, the Vmax [18] was 0.0166 ± 0.0059 µmol/min/mg and the Vmax/Km [18] was 13 µL/min/mg. It also gave a Km [11] of 497 ± 136 µM, a Vmax [11] of 0.00596 µmol/min/mg and a Vmax/Km [11] of 11.9 µL/min/mg. The Km [19] was 409 ± 60.7 µM, the Vmax [19] was 0.00607 µmol/min/mg and the Vmax/Km [19] was 11.6 µL/min/mg. The Km [12] was 1.81 ± 1.03 µM, the Vmax [12] was 0.000163 µmol/min/mg and the Vmax/Km [12] was 102 µL/min/mg. The Km [13] was 9.81 ± 2.26 µM, the Km [14] was 257 ± 53.3 µM and the Vmax [14] was 0.0162 ± 0.00276 µmol/min/mg. It also gave a Vmax/Km [14] of 63.9 µL/min/mg, a Km [15] of 285 ± 3.25 µM and a Vmax [15] of 0.00171 µmol/min/mg. For the same protein, the Vmax/Km [15] was 6 µL/min/mg, the Km [16] was 2.54 ± 0.83 µM and the Vmax [16] was 0.000481 µmol/min/mg. For the same protein, the Vmax/Km [16] was 207 µL/min/mg.
